These results are taken from the RNAGym collection of RNA variant scans (doi:10.7554/elife.80360).

B1: HDV Ribozyme (parent)
chain: GGCCGGCAUGGUCCCAGCCUCCUCGCUGGCGCCGGCUGGGCAACAUUCCGAGGGGACCGUCCCCUCGGUAAUGGCGAAUGGGACCCA

In the data set the parent is B1. The data set is described as follows: self-cleavage, relative activity (ratio to wild type); higher = more cleavage; co-transcriptional.
As to G28C C64G, the self-cleavage was found to be 0.0791.
As to G28C C32U, the self-cleavage came out at 0.19.
The result for U27G A45G reads 0.712; that for U27G C63G, 0.532; that for U27A G73U, 0.261.
The result for G28A G50A reads 0.0906.
With G28A G50U, the self-cleavage is 0.132.
To U27C A70C belongs 0.604; to G28A G53U, 0.0615; to G28C A78U, 0.0811.
As to U27G G67C, the self-cleavage came to 0.653.
To G28A A45C belongs 0.0744.
To G28U G81U belongs 0.202; to G29C U65G, 0.123; to G29C U65A, 0.095.
The result for G28A G74U reads 0.0432.
Turning to G28A G74C, the self-cleavage worked out at 0.0845.
To G28U G52A belongs 0.0733; to G28U G52U, 0.211; to U27C G50U, 0.628.
For U27C G50A, the self-cleavage was 0.733.
To U27G C61G belongs 0.86; to U27G C61A, 0.759.
The result for G29A C63A reads 0.147; that for G29C C75G, 0.131; that for G29C C75U, 0.0287.
As for G28U C61A, the self-cleavage was 0.201.
To G29A U47G belongs 0.0978; to U27C A45U, 0.532; to G29A G82A, 0.109.
To U27G G50C belongs 0.6.
To U27G G50U belongs 0.88.
On to U27C A42G, for which the self-cleavage stood at 0.
To G29A G74C belongs 0.0831; to G29A G73U, 0.112.
Regarding G29U A42U, the self-cleavage was determined as 0.102.
Turning to G29U A42G, the self-cleavage turned out to be 0.148.
To G29C C48A belongs 0.
The result for G28U A83G reads 0.0569.
To G28C A56C belongs 0; to G29C U46G, 0.0723.
As to G28C C84A, the self-cleavage was 0.135.
For G28C C84G, the self-cleavage amounted to 0.0332.
To U27G C66G belongs 0.629.
The result for G29A G59U reads 0.149; that for G28C G67U, 0.
To G28C G67C belongs 0.0923.
In the case of G28C G67A, the self-cleavage turned out to be 0.0707.
To U27A G80U belongs 0.231.
To U27C G31A belongs 0.251; to U27C G31U, 0.161.
To G29A C75G belongs 0.0346; to U27G U46G, 0.462.
As for G29A C57G, the self-cleavage worked out at 0.267.
To G28A C66G belongs 0.138; to G28U G80A, 0.0681; to G29C G82U, 0.0959.
To G28C C62A belongs 0.0346; to G28C C62G, 0.0536.
The result for G28A C30U reads 0.113.
With G28A C30A, the self-cleavage was found to be 0.149.
The result for G28A C84A reads 0.151; that for U27A G81A, 0.914.
To G28U A45U belongs 0.193; to G28U G35C, 0.13; to G28U G35A, 0.0213.
To U27C U72G belongs 0.612; to U27C U72A, 0.396.
Turning to U27G U72A, the self-cleavage was found to be 0.361.
The result for U27C G68U reads 0.642; that for G29C A45U, 0.0519; that for G29C G40A, 0.0804.
To G28A A70C belongs 0.0554.
To G28U A78U belongs 0.0723; to G29C C58G, 0.156.
In the case of G29C C58U, the self-cleavage amounted to 0.104.
Take G28A C48G: the self-cleavage worked out at 0.
The result for G28A C48A reads 0.0978; that for U27A G74C, 0.
To G28A C62U belongs 0.134; to G29A G50A, 0.134; to G29A G50U, 0.241.
On to G29A, for which the self-cleavage worked out at 0.186.
To G29U belongs 0.0885; to G29C, 0.1.
The result for U27G C33G reads 0.104.
The result for U27C C32U reads 0.115; that for U27C C32G, 0.217.
In the case of G28U G59U, the self-cleavage amounted to 0.106.
To G28U G59C belongs 0.136; to G28U C75G, 0.0302.
The result for G28U C75U reads 0.136; that for G28A C58G, 0.0369.
In the case of G29C A77U, the self-cleavage was 0.0369.
As to G28U G39U, the self-cleavage is 0.119.
The result for U27C G35A reads 0.389; that for G28A A87G, 0.0492; that for G28U U60G, 0.123.
The result for G28U G40C reads 0.215; that for G28U G40U, 0.0277.
For G29C C62U, the self-cleavage was found to be 0.
The result for G29C C62A reads 0; that for U27C A87G, 0.497.
G29C G35C: the self-cleavage was determined as 0.0405.
The result for G29A A71G reads 0.032; that for G28A G80A, 0.188; that for G28A G80C, 0.0396.
As for G29C A56U, the self-cleavage is 0.0755.
The result for G28C C85U reads 0; that for G28C C85G, 0.111.
As to G28U C58A, the self-cleavage worked out at 0.208.
To G28U C58U belongs 0.185; to U27A G82C, 0.322.
Turning to G29A C62U, the self-cleavage is 0.159.
The result for U27C G74A reads 0.193.
To G28U C41A belongs 0.138; to G28U C41G, 0.116; to U27G G34A, 0.415.
To U27G G34C belongs 0.0692; to G28A A43C, 0.108; to U27C U46A, 0.529.
Take U27C C86G: the self-cleavage is 1.2.
To G28C A51U belongs 0.156.
To U27A G76C belongs 0.943; to U27C G73C, 0.332; to G29A C61G, 0.107.
To U27G U69A belongs 0.959; to U27G C75G, 0.119.
Consider U27G C49U, for which the self-cleavage came out at 0.957.
To U27G U37G belongs 0.391; to U27G U37A, 0.119; to G29U A43G, 0.131.
The result for U27A U79A reads 0.612.
The result for U27A U79G reads 0.831.
As for G29A U37G, the self-cleavage amounted to 0.0723.
The result for G29C C85U reads 0.108; that for G28U A70G, 0.0707; that for G28U A70C, 0.131.
The result for G28C G54C reads 0.0519.
To G28C G54U belongs 0.0248; to U27C C64G, 0.652; to G29C C66U, 0.0573.
For the variant U27G C30U, the self-cleavage turned out to be 0.554.
To U27G C30G belongs 0.277; to G29A A77U, 0.187.
The result for U27G U47C reads 0.383; that for U27C C33A, 0; that for G29A U46A, 0.156.
For the variant G29C A71U, the self-cleavage amounted to 0.122.
To G29C A71G belongs 0.
Turning to G28C A71C, the self-cleavage amounted to 0.0475.
The result for G29C U60A reads 0.0426; that for G29C G80A, 0.0692.
As for G29C G80U, the self-cleavage was determined as 0.0953.
The result for G28U A71G reads 0.0554; that for G29C G68U, 0.0302.
The result for U27G C58U reads 0.906.
To U27A U60G belongs 0.59; to G28C U69G, 0.156.
On to G28C U69C, for which the self-cleavage was 0.101.
As to G28C U69A, the self-cleavage stood at 0.123.
To G28A C41G belongs 0.151; to G28C C75G, 0.113.
To U27C A77G belongs 0.798; to G28A G68U, 0.0733; to G29C C33G, 0.185.
The result for G29C C33U reads 0.0941.
